Source: patent publication US20210363269A1 (ALX ONCOLOGY, published 2021)

Key:
human SIRPβ isoform 1 [1] = molecular target: T1, human SIRPβ isoform 1 (human, UniProt O00241 30-148); experiment: SPR, captured scFv-Fc
T1 construct: also called sirpb1; Sirpb1
Outline: (§1)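 Pre-filtered culture media supplied the scFv-Fc antibody clones, which were captured by anti-human IgG Fc amine-coupled (about 4000 RU) to a GLC chip on a ProteOn XPR36. SIRP analytes were flowed in PBS pH 7.4 with 0.01% Tween-20 at 25° C. Interspot and buffer-blank responses were subtracted from the data, which were then fitted to a 1:1 Langmuir model. Dissociation rate constants (koff) were derived from this fitting.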

[2] = molecular target: T2, NOD mouse SIRP-α D1 domain (mouse (NOD strain)); experiment: SPR, captured scFv-Fc
T2 chain: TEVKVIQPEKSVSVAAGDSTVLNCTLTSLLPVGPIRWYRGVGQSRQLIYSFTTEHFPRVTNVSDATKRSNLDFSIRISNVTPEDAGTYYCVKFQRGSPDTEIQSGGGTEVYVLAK
Outline: as §1

[3] = molecular target: T3, human SIRP-α v2 D1 domain (human); experiment: SPR, captured scFv-Fc
T3 construct: also called human v2; human α v2
Outline: as §1

[4] = molecular target: T4, C57BL/6 mouse SIRP-α D1 domain (mouse (C57BL/6 strain), UniProt P97797 32-148); experiment: SPR, captured scFv-Fc
T4 sequence: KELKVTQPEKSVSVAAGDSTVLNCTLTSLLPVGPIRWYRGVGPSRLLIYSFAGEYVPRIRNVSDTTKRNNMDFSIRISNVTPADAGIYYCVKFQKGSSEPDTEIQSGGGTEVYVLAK
Outline: as §1

[5] = molecular target: T5, cynomolgus SIRP-α D1 domain (SEQ ID NO:11) (cynomolgus, UniProt Q5TFQ8 30-148 (human entry), limits assumed); experiment: SPR, captured scFv-Fc
T5 construct: also called cyno1
T5 chain: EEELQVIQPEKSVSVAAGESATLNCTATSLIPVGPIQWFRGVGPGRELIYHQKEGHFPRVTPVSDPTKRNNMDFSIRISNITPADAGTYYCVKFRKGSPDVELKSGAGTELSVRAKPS
Outline: as §1

[6] = molecular target: T6, mouse 129 SIRP-α D1 domain (mouse (129 strain), UniProt P97797 32-150); experiment: SPR, captured scFv-Fc
T6 construct: also called m129
T6 chain: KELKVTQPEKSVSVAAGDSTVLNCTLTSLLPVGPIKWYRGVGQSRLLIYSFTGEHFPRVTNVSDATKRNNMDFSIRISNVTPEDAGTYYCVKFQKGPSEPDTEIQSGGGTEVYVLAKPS
Outline: as §1

[7] = molecular target: T7, cynomolgus SIRP-α D1 domain (SEQ ID NO:12) (cynomolgus, UniProt Q5TFQ8 30-148 (human entry), limits assumed); experiment: SPR, captured scFv-Fc
T7 construct: also called cyno2; Cyno2
T7 chain: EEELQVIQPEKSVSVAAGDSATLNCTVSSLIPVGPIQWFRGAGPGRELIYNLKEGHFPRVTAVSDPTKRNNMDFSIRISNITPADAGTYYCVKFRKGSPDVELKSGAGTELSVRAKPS
Outline: as §1

human SIRPγ isoform 1 = molecular target: T8, human SIRPγ isoform 1 (human, UniProt Q9P1W8 29-147); experiment: SPR, captured scFv-Fc
T8 construct: also called sirpg; sirp-g
Outline: as §1

[8] = molecular target: T9, C57BL/6 mouse SIRP-α D1 domain (mouse (C57BL/6 strain), UniProt P97797 32-148); experiment: SPR
T9 sequence: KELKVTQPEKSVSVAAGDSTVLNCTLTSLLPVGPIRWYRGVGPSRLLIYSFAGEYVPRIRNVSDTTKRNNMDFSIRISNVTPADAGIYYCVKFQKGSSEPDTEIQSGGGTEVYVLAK
Outline: as §1

[9] = molecular target: T10, cynomolgus SIRP-α D1 domain (cyno1) (cynomolgus monkey, UniProt Q5TFQ8 30-148 (human entry), limits assumed); experiment: SPR
T10 chain: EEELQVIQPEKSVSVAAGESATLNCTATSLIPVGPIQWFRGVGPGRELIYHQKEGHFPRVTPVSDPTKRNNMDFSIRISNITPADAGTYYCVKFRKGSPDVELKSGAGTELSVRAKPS
Outline: as §1

[10] = molecular target: T11, cynomolgus SIRP-α D1 domain (cyno2) (cynomolgus monkey, UniProt Q5TFQ8 30-148 (human entry), limits assumed); experiment: SPR
T11 chain: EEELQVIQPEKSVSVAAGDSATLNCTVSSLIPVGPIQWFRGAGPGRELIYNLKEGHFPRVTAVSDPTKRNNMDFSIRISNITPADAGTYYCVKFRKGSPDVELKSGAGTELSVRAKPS
Outline: as §1

[11] = molecular target: T12, mouse 129 SIRP-α D1 domain (mouse (129 strain), UniProt P97797 32-150); experiment: SPR
T12 construct: also called m129
T12 chain: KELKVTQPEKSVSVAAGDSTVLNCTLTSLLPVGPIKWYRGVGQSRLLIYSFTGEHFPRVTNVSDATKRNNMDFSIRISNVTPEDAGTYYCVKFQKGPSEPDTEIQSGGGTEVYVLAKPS
Outline: as §1

[12] = molecular target: T13, NOD mouse SIRP-α D1 domain (mouse (NOD strain)); experiment: SPR
T13 chain: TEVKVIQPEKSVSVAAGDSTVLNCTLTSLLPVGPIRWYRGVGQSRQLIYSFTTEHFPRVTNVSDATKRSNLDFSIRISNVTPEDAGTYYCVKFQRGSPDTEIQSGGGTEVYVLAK
Outline: as §1

[13] = molecular target: T14, high affinity SIRP-α D1 variant CV1-3; experiment: SPR, Langmuir fit
T14 chain: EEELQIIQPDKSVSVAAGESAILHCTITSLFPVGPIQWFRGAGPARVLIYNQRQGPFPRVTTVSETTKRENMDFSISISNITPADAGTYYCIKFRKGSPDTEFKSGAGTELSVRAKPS
Outline: as §1

[14] = molecular target: T15, human SIRP-α v2 D1 domain (human); experiment: SPR
T15 construct: also called human v2
Outline: as §1

human SIRPβ isoform 1 [15] = molecular target: T16, human SIRPβ isoform 1 (human, UniProt O00241 30-148); experiment: SPR
T16 construct: also called SIRPb; sirpb1
Outline: as §1

[16] = molecular target: T10, cynomolgus SIRP-α D1 domain (cyno1); experiment: SPR, Langmuir fit
Outline: as §1

[17] = molecular target: T11, cynomolgus SIRP-α D1 domain (cyno2); experiment: SPR, Langmuir fit
Outline: as §1

[18] = molecular target: T17, human SIRP-α v1 D1 domain (human, UniProt P78324 31-149); experiment: SPR, Langmuir fit
T17 construct: also called human v1
Outline: as §1

human SIRPβ isoform 1 [19] = molecular target: T18, human SIRPβ isoform 1 (human, UniProt O00241 30-148); experiment: SPR Koff +/-
T18 construct: also called Beta; Human SIRPb
Outline: (§2)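 On a ProteOn XPR36 biosensor, purified antibodies were either amine-coupled to a GLC chip or captured on an NLC chip using biotinylated Protein A. The running buffer was PBS pH 7.4 with 0.01% Tween-20, at 25° C. SIRP analytes, at nominal concentrations fixed by A280 absorbance, were injected in one-shot kinetic mode. The rate constants are apparent values from a global simple Langmuir fit of double-referenced data, and KD equals kd/ka.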

human SIRP-α v1 = molecular target: T19, human SIRP-α v1 (human, UniProt P78324 31-149); experiment: SPR Koff +/-
T19 construct: also called Human v1; Human V1
Outline: as §2

T8 sequence (Q9P1W8 29-147 limits assumed): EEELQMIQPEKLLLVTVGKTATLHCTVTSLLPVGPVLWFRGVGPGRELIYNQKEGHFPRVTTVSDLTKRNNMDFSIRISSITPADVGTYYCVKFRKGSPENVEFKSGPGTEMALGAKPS
T19 sequence (P78324 31-149 limits assumed): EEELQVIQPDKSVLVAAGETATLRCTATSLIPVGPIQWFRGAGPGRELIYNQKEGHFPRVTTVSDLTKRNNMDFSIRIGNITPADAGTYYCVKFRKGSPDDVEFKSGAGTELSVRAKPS
T17 sequence (P78324 31-149 limits assumed): as above

B1: S138 scFv-Fc (scFv)
scFv: EIVLTQSPGTLSVSPGERVILTCRASQSVDTYNLAWYQQKPGQAPRLLIYDLSTRATGIPDRFSGSGSGTEFTLTINSLEPEDFAVYYCHQYYDWPPYTFGGGTKVEIKGQSSRSSGGGGSSGGGGSDVQLVESGGGVVRPGESLRLSCAASGFTFSNYAMNWVRQAPGEGLEWVSGISGRGGDTYYADSVKGRFTISRDNSKNTLYLQMNSLRAEDTAIYYCAKGTWNYGSFDYWGLGTLVTVSSSLDPKSSDKTDTCPPCPAPELLGGPSVFLFPPKPKDTLMISRTPEVTCVVVDVSHEDPEVKFNWYVDGV
notes: scFv-Fc; Human framework
B1: no binding (tested: 100 nM) (human SIRPβ isoform 1 [1]); no binding (tested: 100 nM) [2]; no binding (tested: 100 nM) [3]. B1: no binding (tested: 100 nM) [4]; no binding (tested: 100 nM) [5]; no binding (tested: 100 nM) [6]. B1: no binding (tested: 100 nM) [7]; no binding (tested: 100 nM) (human SIRPγ isoform 1).

B2: S45 (scFv, V domains shown)
VH: AVTLDESGGGLQTPGGALSLVCKASGFTFSSYAMGWVRQAPGKGLEWVAGIDDDGSTANYGPAVKGRATISRDNGQSTVRLQLNNPRAEDSGTYFCAKASVTGWSAHISGRLDTWGHGTEVIVSS
VL: ALTQPASVSANPGETVKITCSGGGIYYYGWYQQKSPGSAPVTLIYENDKRPSDIPSRFSGSTSGSTNTFTITGVQAEDEAVYYCGGYDSNTTSGIFGAGTTLTVL
notes: also called clone 45; scFv-Fc form of AB45
B2: no binding (tested: Koff > 5 × 10^3 (legend)) [8]; no binding (tested: Koff > 5 × 10^3 (legend)) [9]; no binding (tested: Koff > 5 × 10^3 (legend)) [10]. The binding result [11] was “no binding (tested: Koff > 5 × 10^3 (legend))”, the binding result [12] was “no binding (tested: Koff > 5 × 10^3 (legend))” and the koff [13] was 4.76e-05 s⁻¹.

B3: S194 (scFv, V domains shown)
VH: DVQLVESGGGVVRPGESLRLSCAASGFTFRNYGMSWVRQAPGEGLEWVSASSGSGSTYYADSVKGRFTISRDNSKNTLYLQMNSLRAEDTAIYYCAKVTWNNFFDYWGLGTLVTVSS
VL: EIVLAQSPDTLSVSPGERATLTCRASQDVAGKLAWYQQKPGQAPRLLIHATSSRADGIPARFSGSGSGTEFTLTITGLQSEDFAVYYCQQHYDWSPLTFGGGTKVEIK
B3: no binding (tested: Koff > 5 × 10^3 (legend)) [8]; no binding (tested: Koff > 5 × 10^3 (legend)) [14]; no binding (tested: Koff > 5 × 10^3 (legend)) (human SIRPβ isoform 1 [15]). It also gave a koff [16] of 0.00131 s⁻¹, a koff [13] of 0.00111 s⁻¹ and a koff [17] of 0.00111 s⁻¹. The koff [18] was 0.00117 s⁻¹.

B4: antibody 214 (antibody, V domains shown)
VH: DVQLVESEGGVVRPGESLRLSCEASGFTFRNSYMTWVRQAPGEGLEWVSTISDTGDTAYYADSVKGRFTISRDNSKNSLYLQMNSLRAEDTAIYYCAKSWIWWTFFDYWGLGTLVTVSS
VL: ALTQPASVSANLGGTVEITCSGGNSNHYGWYQQKSPGSAPVTLIYADTNRPSNIPSRFSGSTSGSTSTLTITGVQAEDEAVYYCGGSSTGDGIFGAGTTLTVL
notes: also called S214
B4: no binding (human SIRPβ isoform 1 [19]); no binding (human SIRP-α v1).
